Results from article PMC3158823.

Molecular target: Neu/V664E TM domain peptide (rat)
Experiment: SDS-PAGE mobility

Neu/V664E TM domain peptide
stoichiometry N: 2
